Results reported in patent US20180298422A1.

Target: Taq DNA polymerase (Thermus aquaticus) (UniProt P19821)
Test: cell-based or functional assay

Sequence of UniProt P19821 (P19821 whole entry): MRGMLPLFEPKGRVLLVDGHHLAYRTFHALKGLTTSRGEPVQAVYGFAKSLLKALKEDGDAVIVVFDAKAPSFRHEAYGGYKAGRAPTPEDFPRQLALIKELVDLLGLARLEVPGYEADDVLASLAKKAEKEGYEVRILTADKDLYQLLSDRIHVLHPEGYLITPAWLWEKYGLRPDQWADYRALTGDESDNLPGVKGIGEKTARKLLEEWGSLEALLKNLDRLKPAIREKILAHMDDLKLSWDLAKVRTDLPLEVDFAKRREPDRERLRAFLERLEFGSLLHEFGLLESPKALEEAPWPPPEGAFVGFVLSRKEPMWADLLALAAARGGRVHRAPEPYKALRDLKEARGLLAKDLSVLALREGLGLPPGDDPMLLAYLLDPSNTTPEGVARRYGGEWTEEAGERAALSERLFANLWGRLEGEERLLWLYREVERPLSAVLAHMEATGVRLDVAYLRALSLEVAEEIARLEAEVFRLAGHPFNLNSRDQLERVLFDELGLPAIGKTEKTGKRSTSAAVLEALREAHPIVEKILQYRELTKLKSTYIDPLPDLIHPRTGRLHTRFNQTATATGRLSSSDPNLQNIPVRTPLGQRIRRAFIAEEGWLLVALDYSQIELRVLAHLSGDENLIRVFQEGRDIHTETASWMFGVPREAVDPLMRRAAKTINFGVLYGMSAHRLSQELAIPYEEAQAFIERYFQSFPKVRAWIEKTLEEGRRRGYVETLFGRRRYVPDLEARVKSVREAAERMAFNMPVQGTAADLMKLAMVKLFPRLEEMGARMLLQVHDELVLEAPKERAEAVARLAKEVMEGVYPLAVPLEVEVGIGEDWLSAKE

JumpStart Antibody (Sigma Aldrich)
reactivation time of Taq DNA polymerase at 95 C in real-time PCR: < 0.5 min
